# Patent publication US20250382386A1 (KINTOR PHARMACEUTICAL GUANGDONG, published 2025)
# Where two headings read alike, the source gives them in different places.
# Legend:
# [1] = biological target: T1, human ALK-1 on cells (CHO-K1-hALK-1 cells; HUVEC; A172) (human, UniProt P37023 22-503); assay: cell-based or functional assay
# [2] = biological target: T1, human ALK-1 on cells (CHO-K1-hALK-1 …); assay: flow cytometry on CHO-K1-hALK-1 cells ('Binding affinity to CHO-ALK1'), MFI; method as for FIG. 3
# [3] = biological target: T1, human ALK-1 on cells (CHO-K1-hALK-1 …); assay: cell-based or functional assay; remark: listed apart in the source
# [4] = biological target: T1, human ALK-1 on cells (CHO-K1-hALK-1 …); assay: flow cytometry on CHO-K1-hALK-1 cells, MFI; VEGF 165-biotin and APC-anti-human IgG mAb added after the antibody
# [5] = biological target: T1, human ALK-1 on cells (CHO-K1-hALK-1 …); assay: flow cytometry on CHO-K1-ALK-1 cells, MFI; detection with human PD-1-PE and PE anti-human IgG Fc antibody 'respectively'
# [6] = biological target: T1, human ALK-1 on cells (CHO-K1-hALK-1 …); assay: cell-based or functional assay; remark: listed apart in the source
# [7] = biological target: T1, human ALK-1 on cells (CHO-K1-hALK-1 …); assay: cell-based or functional assay; remark: listed apart in the source
# [8] = biological target: T1, human ALK-1 on cells (CHO-K1-hALK-1 …); assay: cell-based or functional assay; remark: listed apart in the source
# [9] = biological target: T1, human ALK-1 on cells (CHO-K1-hALK-1 …); assay: flow cytometry on CHO-K1-hALK-1 cells, MFI
IC50 of blocking BMP9-induced Smad1 phosphorylation in HUVEC cells (ELISA kit) [1],Binder,also measured
6.3 nM,"anti-ALK-1 antibody #27 (antibody, human IgG1, kappa, L234A L235A, V domains shown) VH: QVQLQESGPGLVKPSQTLSLTCTVSGGSISSGEYYWNWIRQHPGKGLEWIGYIYYSGSTYYNPSLKSRVTISVDTSKNQFSLKLSSVTAADTAVYYCARESVAGFDYWGQGTLVTVSS VL: EIVLTQSPGTLSLSPGERATLSCRASQSVSSSYLAWYQQKPGQAPRLLIYGTSSRATGIPDRFSGSGSGTDFTLTISRLEPEDFAVYYCQGYGSWPITFGQGTRLEIKR",–
6.9 nM,"anti-ALK-1 antibody #28 (antibody, human IgG1, kappa, L234A L235A, V domains shown) VH: QVQLQESGPGLVKPSQTLSLTCTVSGGSISSGEYYWNWIRQHPGKGLEWIGYIYYSGSTYYNPSLKSRVTISVDTSKNQFSLKLSSVTAADTAVYYCARESVAGFDYWGQGTLVTVSS VL: EIVLTQSPGTLSLSPGERATLSCRASQSVSSSYLAWYQQKPGQAPRLLIYGTSSRATGIPDRFSGSGSGTDFTLTISRLEPEDFAVYYCQIYGSVPITFGQGTRLEIKR",–
12.4 nM,"anti-ALK-1 antibody #26 (antibody, human IgG1, kappa, L234A L235A, V domains shown) VH: QVQLQESGPGLVKPSQTLSLTCTVSGGSISSGEYYWNWIRQHPGKGLEWIGYIYYSGSTYYNPSLKSRVTISVDTSKNQFSLKLSSVTAADTAVYYCARESVAGFDYWGQGTLVTVSS VL: EIVLTQSPGTLSLSPGERATLSCRASQSVSSSYLAWYQQKPGQAPRLLIYGTSSRATGIPDRFSGSGSGTDFTLTISRLEPEDFAVYYCQVYGSVPITFGQGTRLEIKR",–

# Further lines, the binder ahead of its results:
Binder,IC50 of blocking BMP9-induced Smad1 phosphorylation in HUVEC cells (ELISA kit) [1],also measured
"anti-ALK-1 antibody #1 (antibody, human IgG1, kappa, L234A L235A, V domains shown) VH: QVQLQESGPGLVKPSQTLSLTCTVSGGSISSGEYYWNWIRQHPGKGLEWIGYIYYSGSTYYNPSLKSRVTISVDTSKNQFSLKLSSVTAADTAVYYCARESVAGFDYWGQGTLVTVSS VL: EIVLTQSPGTLSLSPGERATLSCRASQSVSSSYLAWYQQKPGQAPRLLIYGTSSRATGIPDRFSGSGSGTDFTLTISRLEPEDFAVYYCQGYGSFPITFGQGTRLEIKR",5.8 nM,–
"anti-ALK-1 antibody #14 (antibody, human IgG1, kappa, L234A L235A, V domains shown) VH: QVQLQESGPGLVKPSQTLSLTCTVSGGSISSGEYYWNWIRQHPGKGLEWIGYIYYSGSTYYNPSLKSRVTISVDTSKNQFSLKLSSVTAADTAVYYCARESVAGFDYWGQGTLVTVSS VL: EIVLTQSPGTLSLSPGERATLSCRASQSVSSSYLAWYQQKPGQAPRLLIYGTSSRATGIPDRFSGSGSGTDFTLTISRLEPEDFAVYYCQMYGSWPITFGQGTRLEIKR",11.1 nM,–
"anti-ALK-1 antibody #19 (antibody, human IgG1, kappa, L234A L235A, V domains shown) VH: QVQLQESGPGLVKPSQTLSLTCTVSGGSISSGEYYWNWIRQHPGKGLEWIGYIYYSGSTYYNPSLKSRVTISVDTSKNQFSLKLSSVTAADTAVYYCARESVAGFDYWGQGTLVTVSS VL: EIVLTQSPGTLSLSPGERATLSCRASQSVSSSYLAWYQQKPGQAPRLLIYGTSSRATGIPDRFSGSGSGTDFTLTISRLEPEDFAVYYCQFYGSWPITFGQGTRLEIKR",5.2 nM,–
"anti-ALK-1 antibody #3 (antibody, human IgG1, kappa, L234A L235A, V domains shown) VH: QVQLQESGPGLVKPSQTLSLTCTVSGGSISSGEYYWNWIRQHPGKGLEWIGYIYYSGSTYYNPSLKSRVTISVDTSKNQFSLKLSSVTAADTAVYYCARESVAGFDYWGQGTLVTVSS VL: EIVLTQSPGTLSLSPGERATLSCRASQSVSSSYLAWYQQKPGQAPRLLIYGTSSRATGIPDRFSGSGSGTDFTLTISRLEPEDFAVYYCQLYGSFPITFGQGTRLEIKR",5.3 nM,–
"anti-ALK-1 antibody #25 (antibody, human IgG1, kappa, L234A L235A, V domains shown) VH: QVQLQESGPGLVKPSQTLSLTCTVSGGSISSGEYYWNWIRQHPGKGLEWIGYIYYSGSTYYNPSLKSRVTISVDTSKNQFSLKLSSVTAADTAVYYCARESVAGFDYWGQGTLVTVSS VL: EIVLTQSPGTLSLSPGERATLSCRASQSVSSSYLAWYQQKPGQAPRLLIYGTSSRATGIPDRFSGSGSGTDFTLTISRLEPEDFAVYYCQVYGSWPITFGQGTRLEIKR",9.1 nM,–
"anti-ALK-1 antibody #9 (antibody, human IgG1, kappa, L234A L235A, V domains shown) VH: QVQLQESGPGLVKPSQTLSLTCTVSGGSISSGEYYWNWIRQHPGKGLEWIGYIYYSGSTYYNPSLKSRVTISVDTSKNQFSLKLSSVTAADTAVYYCARESVAGFDYWGQGTLVTVSS VL: EIVLTQSPGTLSLSPGERATLSCRASQSVSSSYLAWYQQKPGQAPRLLIYGTSSRATGIPDRFSGSGSGTDFTLTISRLEPEDFAVYYCQIYGSWPITFGQGTRLEIKR",11.6 nM,–
"anti-ALK-1 antibody #18 (antibody, human IgG1, kappa, L234A L235A, V domains shown, the rest as BM; also called #18 mutant; ALK-1 mAb (#18 mutant)) VH: QVQLQESGPGLVKPSQTLSLTCTVSGGSISSGEYYWNWIRQHPGKGLEWIGYIYYSGSTYYNPSLKSRVTISVDTSKNQFSLKLSSVTAADTAVYYCARESVAGFDYWGQGTLVTVSS VL: EIVLTQSPGTLSLSPGERATLSCRASQSVSSSYLAWYQQKPGQAPRLLIYGTSSRATGIPDRFSGSGSGTDFTLTISRLEPEDFAVYYCQAYGSWPITFGQGTRLEIKR",8.2 nM,"EC50 [2]: 0.447 nM; IC50; blocking of BMP9-induced Smad1 phosphorylation, pSmad1 ELISA assay in A172 cell line (right panel), OD 450 [3]: 2.39 nM; IC50; blocking of BMP9-induced Smad1 phosphorylation, pSmad1 ELISA assay in HUVEC (left panel), OD 450 [3]: 26.3 nM; EC50 [4]: 1.85 nM; EC50 [5]: 1.85 nM; IC50; blocking of BMP9-induced Smad1 phosphorylation, pSmad1 ELISA assay in HUVEC, OD450 [6]: 20.9 nM; IC50; blocking of BMP9-induced Smad1 phosphorylation, pSmad1 ELISA assay in A172 cell line, OD 450 [7]: 2.39 nM; IC50; blocking of BMP9-induced Smad1 phosphorylation, pSmad1 ELISA assay in HUVEC, OD450 [8]: 26.3 nM"
"anti-ALK-1 antibody #12 (antibody, human IgG1, kappa, L234A L235A, V domains shown) VH: QVQLQESGPGLVKPSQTLSLTCTVSGGSISSGEYYWNWIRQHPGKGLEWIGYIYYSGSTYYNPSLKSRVTISVDTSKNQFSLKLSSVTAADTAVYYCARESVAGFDYWGQGTLVTVSS VL: EIVLTQSPGTLSLSPGERATLSCRASQSVSSSYLAWYQQKPGQAPRLLIYGTSSRATGIPDRFSGSGSGTDFTLTISRLEPEDFAVYYCQIYGSIPITFGQGTRLEIKR",11.2 nM,–
"Bevacizumab (antibody, V domains shown, Bought control antibody (Biointron, B7424); also called Avastin; VEGF-A monoclonal antibody (Bevacizumab)) VH: EVQLVESGGGLVQPGGSLRLSCAASGYTFTNYGMNWVRQAPGKGLEWVGWINTYTGEPTYAADFKRRFTFSLDTSKSTAYLQMNSLRAEDTAVYYCAKYPHYYGSSHWYFDVWGQGTLVTVSS VL: DIQMTQSPSSLSASVGDRVTITCSASQDISNYLNWYQQKPGKAPKVLIYFTSSLHSGVPSRFSGSGSGTDFTLTISSLQPEDFATYYCQQYSTVPWTFGQGTKVEIK",–,binding result [9]: no binding (tested: about 50 nM)
